Assay results: IntAct's records for PubMed 20300064

B1: Rho guanine nucleotide exchange factor 11 (Homo sapiens), O15085 (parent)
chain: MSVRLPQSIDRLSSLSSLGDSAPERKSPSHHRQPSDASETTGLVQRCVIIQKDQHGFGFTVSGDRIVLVQSVRPGGAAMKAGVKEGDRIIKVNGTMVTNSSHLEVVKLIKSGAYVALTLLGSSPSSMGISGLQQDPSPAGAPRITSVIPSPPPPPPLPPPQRITGPKPLQDPEVQKHATQILRNMLRQEEKELQDILPLYGDTSQRPSEGRLSLDSQEGDSGLDSGTERFPSLSESLMNRNSVLSDPGLDSPRTSPVIMARVAQHHRRQGSDAAVPSTGDQGVDQSPKPLIIGPEEDYDPGYFNNESDIIFQDLEKLKSRPAHLGVFLRYIFSQADPSPLLFYLCAEVYQQASPKDSRSLGKDIWNIFLEKNAPLRVKIPEMLQAEIDSRLRNSEDARGVLCEAQEAAMPEIQEQIHDYRTKRTLGLGSLYGENDLLDLDGDPLRERQVAEKQLAALGDILSKYEEDRSAPMDFALNTYMSHAGIRLREARPSNTAEKAQSAPDKDKWLPFFPKTKKSSNSKKEKDALEDKKRNPILKYIGKPKSSSQSTFHIPLSPVEVKPGNVRNIIQHFENNQQYDAPEPGTQRLSTGSFPEDLLESDSSRSEIRLGRSESLKGREEMKRSRKAENVPRSRSDVDMDAAAEATRLHQSASSSTSSLSTRSLENPTPPFTPKMGRRSIESPSLGFCTDTLLPHLLEDDLGQLSDLEPEPDAQNWQHTVGKDVVAGLTQREIDRQEVINELFVTEASHLRTLRVLDLIFYQRMKKENLMPREELARLFPNLPELIEIHNSWCEAMKKLREEGPIIKEISDLMLARFDGPAREELQQVAAQFCSYQSIALELIKTKQRKESRFQLFMQEAESHPQCRRLQLRDLIISEMQRLTKYPLLLESIIKHTEGGTSEHEKLCRARDQCREILKYVNEAVKQTENRHRLEGYQKRLDATALERASNPLAAEFKSLDLTTRKMIHEGPLTWRISKDKTLDLHVLLLEDLLVLLQKQDEKLLLKCHSKTAVGSSDSKQTFSPVLKLNAVLIRSVATDKRAFFIICTSKLGPPQIYELVALTSSDKNTWMELLEEAVRNATRHPGAAPMPVHPPPPGPREPAQQGPTPSRVELDDSDVFHGEPEPEELPGGTGSQQRVQGKHQVLLEDPEQEGSAEEEELGVLPCPSTSLDGENRGIRTRNPIHLAFPGPLFMEGLADSALEDVENLRHLILWSLLPGHTMETQAAQEPEDDLTPTPSVISVTSHPWDPGSPGQAPPGGEGDNTQLAGLEGERPEQEDMGLCSLEHLPPRTRNSGIWESPELDRNLAEDASSTEAAGGYKVVRKAEVAGSKVVPALPESGQSEPGPPEVEGGTKATGNCFYVSMPSGPPDSSTDHSEAPMSPPQPDSLPAGQTEPQPQLQGGNDDPRRPSRSPPSLALRDVGMIFHTIEQLTLKLNRLKDMELAHRELLKSLGGESSGGTTPVGSFHTEAARWTDGSLSPPAKEPLASDSRNSHELGPCPEDGSDAPLEDSTADAAASPGP

Variants of: B1
Details: with rhoa_human RHOA

Row | Variant | effect of a mutation on the interaction
1 | S748A | decreasing interaction
2 | E741N | decreasing interaction

Variants of: B1
Details: with rhoa_human RHOA
Remark: another data set of the same source

Row | Variant | effect of a mutation on the interaction
3 | R872D | disrupting interaction
4 | D873N | disrupting interaction
5 | I876M | disrupting interaction

Variants of: B1
Details: with rhoa_human RHOA
Remark: another data set of the same source

Row | Variant | effect of a mutation on the interaction
6 | L869A | disrupting interaction
7 | R867Q | disrupting interaction
8 | R868G | disrupting interaction

Variants of: B1
Details: with rhoa_human RHOA
Remark: another data set of the same source

Row | Variant | effect of a mutation on the interaction
9 | E928A | disrupting interaction
